Changes are numbered by the printed parent chain. In names and notes the source's numbering stands.
B1: Dd myosin-2 M765-2R wild type (Dd myosin-2 motor domain fused to two Dd α-actinin repeats) (other)
chain: MNPIHDRTSDYHKYLKVKQGDSDLFKLTVSDKRYIWYNPDPKERDSYECGEIVSETSDSFTFKTVDGQDRQVKKDDANQRNPIKFDGVEDMSELSYLNEPAVFHNLRVRYNQDLIYTYSGLFLVAVNPFKRIPIYTQEMVDIFKGRRRNEVAPHIFAISDVAYRSMLDDRQNQSLLITGESGAGKTENTKKVIQYLASVAGRNQANGSGVLEQQILQANPILEAFGNAKTTRNNNSSRFGKFIEIQFNSAGFISGASIQSYLLEKSRVVFQSETERNYHIFYQLLAGATAEEKKALHLAGPESFNYLNQSGCVDIKGVSDSEEFKITRQAMDIVGFSQEEQMSIFKIIAGILHLGNIKFEKGAGEGAVLKDKTALNAASTVFGVNPSVLEKALMEPRILAGRDLVAQHLNVEKSSSSRDALVKALYGRLFLWLVKKINNVLCQERKAYFIGVLDISGFEIFKVNSFEQLCINYTNEKLQQFFNHHMFKLEQEEYLKEKINWTFIDFGLDSQATIDLIDGRQPPGILALLDEQSVFPNATDNTLITKLHSHFSKKNAKYEEPRFSKTEFGVTHYAGQVMYEIQDWLEKNKDPLQQDLELCFKDSSDNVVTKLFNDPNIASRAKKGANFITVAAQYKEQLASLMATLETTNPHFVRCIIPNNKQLPAKLEDKVVLDQLRCNGVLEGIRITRKGFPNRIIYADFVKRYYLLAPNVPRDAEDSQKATDAVLKHLNIDPEQYRFGITKIFFRAGQLARIEEAREQRISEILEQTKSDYLKRANELVQWINDKQASLESRDFGDSIESVQSFMNAHKEYKKTEKPPKGQEVSELEAIYNSLQTKLRLIKREPFVAPAGLTPNEIDSTWSALEKAEQEHAEALRIELKRQKKIAVLLQKYNRILKKLENWATTKSVYLGSNETGDSITAVQAKLKNLEAFDGECQSLEGQSNSDLLSILAQLTELNYNGVPELTERKDTFFAQQWTGVKSSAETYKNTLLAELERLQKIEDSLV
notes: Dictyostelium discoideum myosin-2 heavy chain (mhcA gene), first 765 residues (motor domain); Dictyostelium discoideum α-actinin, codon 264 to 505 (two α-actinin repeats, artificial lever arm); Expression vector based on pDXA-3H; also called WT; M765-2R WT; source: Dictyostelium discoideum AX3-Orf+ cells, purified (Ni-NTA)
B2: Dd myosin-2 M765-2R K265E (other)
chain: B1 chain with K265E
notes: Dictyostelium discoideum myosin-2 heavy chain (mhcA gene), first 765 residues (motor domain), with K265E; Dictyostelium discoideum α-actinin, codon 264 to 505 (two α-actinin repeats, artificial lever arm); Point mutant of the fusion construct m1; source: Dictyostelium discoideum AX3-Orf+ cells, purified (Ni-NTA)
B3: Dd myosin-2 M765-2R K265Q (other)
chain: B1 chain with K265Q
notes: Dictyostelium discoideum myosin-2 heavy chain (mhcA gene), first 765 residues (motor domain), with K265Q; Dictyostelium discoideum α-actinin, codon 264 to 505 (two α-actinin repeats, artificial lever arm); Point mutant of the fusion construct m1; source: Dictyostelium discoideum AX3-Orf+ cells, purified (Ni-NTA)
B4: Dd myosin-2 M765-2R K265A (other)
chain: B1 chain with K265A
notes: Dictyostelium discoideum myosin-2 heavy chain (mhcA gene), first 765 residues (motor domain), with K265A; Dictyostelium discoideum α-actinin, codon 264 to 505 (two α-actinin repeats, artificial lever arm); Point mutant of the fusion construct m1; source: Dictyostelium discoideum AX3-Orf+ cells, purified (Ni-NTA)

What was measured:
[1] = target: Pyrene-labelled F-actin (rabbit skeletal muscle actin) (rabbit, UniProt P68135 1-377, pyrene label); assay: other fluorescence titration; stopped-flow, pyrene-actin fluorescence; k+A from the slope of observed rate constants against actin concentration; k-A by chasing pyrene-actin from the complex with a large excess of unlabelled F-actin; KA calculated as k-A/k+A; 25 mM MOPS, 100 mM KCl, 5 mM MgCl2, 1 mM DTT, pH 7.0, 20 °C; details: both partners purified
[2] = target: F-actin (rabbit skeletal muscle actin) (rabbit, UniProt P68135 1-377); assay: cell-based or functional assay

Binder	Kd [1] [nM]	koff [1] [s⁻¹]	kon [1] [M⁻¹ s⁻¹]	k cat/K app, calculated from k cat and K app of the actin-activated steady-state ATPase [2] [M⁻¹ s⁻¹]
B1	3.6	0.0049	1.37e+06	30000
B2	10.1	0.0113	1.11e+06	15000
B3	7.6	0.0078	1.02e+06	19000
B4	7.5	0.0104	1.38e+06	20000

Source: publication PMC5550493, “The Conserved Lysine-265 Allosterically Modulates Nucleotide- and Actin-binding Site Coupling in Myosin-2” (Scientific Reports, 2017)
